Substrate: C[S+](CC[C@H](N)C(=O)[O-])C[C@H]1O[C@@H](n2cnc3c(N)ncnc32)[C@H](O)[C@@H]1O
Assay: Discontinuous HPLC assay of 5′-FDA formation with SAM varied at 200 mM fluoride
Type: biochemical
Conditions: pH 7.8; 25.0 °C

Protein	Km [µM]	kcat [s⁻¹]
T80A (Streptantibioticus cattleyicolor; T80A) (protein) AANSTRRPIIAFMSDLGTTDDSVAQCKGLMYSICPDVTVVDVCHSMTPWDVEEGARYIVDLPRFFPEGTVFATTTYPAAGTTTRSVAVRIKQAAKGGARGQWAGSGAGFERAEGSYIYIAPNNGLLTTVLEEHGYLEAYEVTSPKVIPEQPEPTFYSREMVAIPSAHLAAGFPLSEVGRPLEDHEIVRFNRPAVEQDGEALVGVVSAIDHPFGNVWTNIHRTDLEKAGIGYGARLRLTLDGVLPFEAPLTPTFADAGEIGNIAIYLNSRGYLSIARNAASLAYPYHLKEGMSARVEAR	3.0 ± 0.4	8.33e-05 ± 3.33e-06
S158A (Streptantibioticus cattleyicolor; S158A) (protein) AANSTRRPIIAFMSDLGTTDDSVAQCKGLMYSICPDVTVVDVCHSMTPWDVEEGARYIVDLPRFFPEGTVFATTTYPATGTTTRSVAVRIKQAAKGGARGQWAGSGAGFERAEGSYIYIAPNNGLLTTVLEEHGYLEAYEVTSPKVIPEQPEPTFYAREMVAIPSAHLAAGFPLSEVGRPLEDHEIVRFNRPAVEQDGEALVGVVSAIDHPFGNVWTNIHRTDLEKAGIGYGARLRLTLDGVLPFEAPLTPTFADAGEIGNIAIYLNSRGYLSIARNAASLAYPYHLKEGMSARVEAR	9.2 ± 1.2	0.00015 ± 1e-05
T80S (Streptantibioticus cattleyicolor; T80S) (protein) AANSTRRPIIAFMSDLGTTDDSVAQCKGLMYSICPDVTVVDVCHSMTPWDVEEGARYIVDLPRFFPEGTVFATTTYPASGTTTRSVAVRIKQAAKGGARGQWAGSGAGFERAEGSYIYIAPNNGLLTTVLEEHGYLEAYEVTSPKVIPEQPEPTFYSREMVAIPSAHLAAGFPLSEVGRPLEDHEIVRFNRPAVEQDGEALVGVVSAIDHPFGNVWTNIHRTDLEKAGIGYGARLRLTLDGVLPFEAPLTPTFADAGEIGNIAIYLNSRGYLSIARNAASLAYPYHLKEGMSARVEAR	4.7 ± 0.4	0.001 ± 3.33e-05
S158G (Streptantibioticus cattleyicolor; S158G) (protein) AANSTRRPIIAFMSDLGTTDDSVAQCKGLMYSICPDVTVVDVCHSMTPWDVEEGARYIVDLPRFFPEGTVFATTTYPATGTTTRSVAVRIKQAAKGGARGQWAGSGAGFERAEGSYIYIAPNNGLLTTVLEEHGYLEAYEVTSPKVIPEQPEPTFYGREMVAIPSAHLAAGFPLSEVGRPLEDHEIVRFNRPAVEQDGEALVGVVSAIDHPFGNVWTNIHRTDLEKAGIGYGARLRLTLDGVLPFEAPLTPTFADAGEIGNIAIYLNSRGYLSIARNAASLAYPYHLKEGMSARVEAR	0.8 ± 0.5	1.17e-05 ± 5e-07

— PMC3326528
